This passage reports Kd results from US20210047402A1 (published 2021).

B1: anti-CD22 heavy chain-only antibody Clone ID 335311 (antibody, V domains shown)
VH: QLQLQESGPGLVKPSETLSLTCAVYGGSFSGYYWGWIRQPPGKGLEWIGHIYYSGATYYNPSLKNRVTISVDTSRNQFSLNLSSVTAADTAVYYCTREDSSSWRSRGQGTLVTVSS
B2: anti-CD22 heavy chain-only antibody Clone ID 335220 (antibody, V domains shown)
VH: QLQLQESGPGLVKPSETLSLTCTVSGGSISSSSYYWGWIRQPPGKGLEWIGSIYYSGSTYYNPSLKNRVTISVDTSKNQFSLKLSSVTAADTAVYYCTREDSSNWRSRGQGTLVTVSS
B3: anti-CD22 heavy chain-only antibody Clone ID 335219 (antibody, V domains shown)
VH: QLQLQESGPGLVKPSETLSLTCTVSGGSISSSSYYWGWIRQPPGKGLEWIGSIYYSGVTYYNPSLKNRVTISVDTSKNQFSLKLSSVTAADTAVYYCTREDSSNWRSRGQGTLVTVSS
B4: anti-CD22 heavy chain-only antibody Clone ID 335283 (antibody, V domains shown)
VH: QLQLQESGPGLVKPSETLSLTCTVSGGSISSSSYYWGWIRQPPGKGLEWIGSIYYSGATYYNPSLKNRVTISVDTSKNQFSLKLSSVTAADTAVYYCTREDSSSWRSRGQGTLVTVSS
B5: anti-CD22 heavy chain-only antibody Clone ID 335186 (antibody, V domains shown)
VH: QLQLQESGPGLVKPSETLSLTCTVSGGSISSSSYYWGWIRQPPGKGLEWIGSIYYSGSTYYNPSLKSRVTISVDTSKNQFSLKLSSVTAADTAVYYCTRDDSSNWRSRGQGTLVTVSS
B6: anti-CD22 heavy chain-only antibody Clone ID 335173 (antibody, V domains shown)
VH: QLQLQESGPGLVKPSETLSLTCTVSGGSITSSSYYWGWIRQPPGKGLEWIGSIYYSGSTYYNPSLKSRVTISVDTSKNQFSLKLSSVTAADTAVYYCTRDDSSNWRSRGQGTLVTVSS
B7: anti-CD22 heavy chain-only antibody Clone ID 335210 (antibody, V domains shown)
VH: QLQLQESGPGLVKPSETLSLTCTVSGGSISSGDYYWGWIRQPPGKGLEWIGHIYYSGATYYNPSLKNRVTISVDTSRNQFSLKLSSVTAADTAVYYCTREDSSNWRSRGQGTLVTVSS
B8: anti-CD22 heavy chain-only antibody Clone ID 335242 (antibody, V domains shown)
VH: QLQLQESGPGLVKPSETLSLTCTVSGGSISSSSYYWGWIRQPPGKGLEWIGHIYYSGATYYNPSLKNRVTISVDTSRNQFSLNLSSVTAADTAVYYCTREDSSNWRSRGQGTLVTVSS
B9: anti-CD22 heavy chain-only antibody Clone ID 335208 (antibody, V domains shown)
VH: QLQLQESGPGLVKPSETLSLTCTVSGGSISSSSYYWGWIRQPPGKGLEWIGSIYYSGATYYNPSLKNRVTISVDTSRNQFSLNLSSVTAADTAVYYCTREDSSNWRSRGQGTLVTVSS
B10: anti-CD22 heavy chain-only antibody Clone ID 335189 (antibody, V domains shown)
VH: QLQLQESGPGLVKPSETLSLTCTVSGGSISSSSYYWGWIRQPPGKGLEWIGSVYYTGATYYNPSLKNRVTISVDTSKNQFSLKLSSVTAADTAVYYCTRDDSSNWRSRGQGTLVTVSS
B11: anti-CD22 heavy chain-only antibody Clone ID 335188 (antibody, V domains shown)
VH: QLQLQESGPGLVKPSETLSLTCTVSGGSISSSSYYWGWIRQPPGKGLEWIGHIYYSGVTYYNPSLKNRVTISVDTSKNQFSLKLSSVTAADTAVYYCTRDDSSNWRSRGQGTLVTVSS
B12: anti-CD22 heavy chain-only antibody Clone ID 335236 (antibody, V domains shown)
VH: QLQLQESGPGLVKPSETLSLTCTVSGGSISSSSYYWGWIRQPPGKGLEWIGSIYYSGSTYYNPSLKSRVTISVDTSKNQFSLKLSSVTAADTAVYYCTREDSSNWRSRGQGTLVTVSS
B13: anti-CD22 heavy chain-only antibody Clone ID 335297 (antibody, V domains shown)
VH: QLQLQESGPGLVKPSETLSLTCTVSGGSISSSSYYWGWIRQPPGKGLEWIGHIYYSGATYYNPSLKNRVTISVDTSRNQFSLNLSSVTAADTAVYYCTREDSSSWRSRGQGTLVTVSS
B14: anti-CD22 heavy chain-only antibody Clone ID 335166 (antibody, V domains shown)
VH: QLQLQESGPGLVKPSETLSLTCTVSGGSISSSSYYWGWIRQPPGKGLEWIGSIYYSGSTYYNPSLKNRVTISVDTSRNQFSLNLSSVTAADTAVYYCTRDDSSNWRSRGQGTLVTVSS
B15: anti-CD22 heavy chain-only antibody Clone ID 335273 (antibody, V domains shown)
VH: QLQLQESGPGLVKPSETLSLTCTVSGGSISSSSYYWGWIRQPPGKGLEWIGSIYYSGSTYYNPSLKSRVTISVDTSKNQFSLKLSSVTAADTAVYYCTREDSSSWRSRGQGTLVTVSS
B16: anti-CD22 heavy chain-only antibody Clone ID 335179 (antibody, V domains shown)
VH: QLQLQESGPGLVKPSETLSLTCTVSGGSISSSSYYWGWFRHPPGKGLDWIGSIHYSGSTYYNPSLKSRVTISVDTSRNQFSLNLSSVTAADTAVYYCTRDDSSNWRSRGQGTLVTVSS
B17: anti-CD22 heavy chain-only antibody Clone ID 335266 (antibody, V domains shown)
VH: QLQLQESGPGLVRPSETLSLTCTVSGGSISSSSYYWGWIRQPPGKGLEWIGSIYYSGSTYYNPSLKSRVTISVDTSKNQFSLKLSSVTAADTAVYYCTREDSSSWRSRGQGTLVTVSS
B18: anti-CD22 heavy chain-only antibody Clone ID 335230 (antibody, V domains shown)
VH: QLQLQESDPGLVKPSETLSLTCTVSGGSISSSSHYWGWIRQPPGKGLEWIGHIYYSGATYYNPSLKNRVTISVDTSRNQFSLNLSSVTAADTAVYYCTREDSSNWRSRGQGTLVTVSS
B19: anti-CD22 heavy chain-only antibody Clone ID 335224 (antibody, V domains shown)
VH: QLQLQESGPGLVKPSETLSLTCTVSGDSISSGDYYWGWIRQPPGKGLEWIGSIYYTGSTYYNPSLKSRVTISVDTSKNQFSLKLSSVTAADTAVYYCTREDSSNWRSRGQGTLVTVSS
B20: anti-CD22 heavy chain-only antibody Clone ID 335226 (antibody, V domains shown)
VH: QLQLQESGPGLVKPSETLSLTCTVSGDSISSSSYYWGWIRQPPGKGLEWIGSIYYSGSTYYNPSLKSRVTISVDTSKNQFSLKLSSVTAADTAVYYCTREDSSNWRSRGQGTLVTVSS
B21: anti-CD22 heavy chain-only antibody Clone ID 335333 (antibody, V domains shown)
VH: QLQLQESGPGLVKPSETLSLTCTVSGGSISSSSYYWGWIRQPPGKGLEWIGSIYYSGSTYYNPSLKSRVTISVDTSKNQFSLKLSSVTAADTAVYYCAREDSSSWRSRGQGTLVTVSS
B22: anti-CD22 heavy chain-only antibody Clone ID 335233 (antibody, V domains shown)
VH: QLQLQESGPGLVKPSETLSLTCTVSGDSISSGDYYWGWIRQPPGKGLEWIGSIYYSGSTYYNPSLKSRVTISVDTSKNQFSLKLSSVTAADTAVYYCTREDSSNWRSRGQGTLVTVSS
B23: anti-CD22 heavy chain-only antibody Clone ID 335195 (antibody, V domains shown)
VH: QLQLQESGPGLVKPSETLSLTCTVSGGSISSSSYYWGWIRQPPGKGLEWIGSIYYSGATYYNPSLKNRVTISVDTSRNQFSLNLSSVTAADTAMYYCTREDSSNWRSRGQGTLVTVSS
B24: anti-CD22 heavy chain-only antibody Clone ID 335295 (antibody, V domains shown)
VH: QLQLQESGPGLVKPSETLSLTCTVSGGSISSSSYYWGWIRQPPGKGLEWIGSIYYSGATYYNPSLKNRVTISVDTSRNQFSLNLSSVTAADTAVYYCTREDSSSWRSRGQGTLVTVSS

human CD22, sequence (P20273 20-687): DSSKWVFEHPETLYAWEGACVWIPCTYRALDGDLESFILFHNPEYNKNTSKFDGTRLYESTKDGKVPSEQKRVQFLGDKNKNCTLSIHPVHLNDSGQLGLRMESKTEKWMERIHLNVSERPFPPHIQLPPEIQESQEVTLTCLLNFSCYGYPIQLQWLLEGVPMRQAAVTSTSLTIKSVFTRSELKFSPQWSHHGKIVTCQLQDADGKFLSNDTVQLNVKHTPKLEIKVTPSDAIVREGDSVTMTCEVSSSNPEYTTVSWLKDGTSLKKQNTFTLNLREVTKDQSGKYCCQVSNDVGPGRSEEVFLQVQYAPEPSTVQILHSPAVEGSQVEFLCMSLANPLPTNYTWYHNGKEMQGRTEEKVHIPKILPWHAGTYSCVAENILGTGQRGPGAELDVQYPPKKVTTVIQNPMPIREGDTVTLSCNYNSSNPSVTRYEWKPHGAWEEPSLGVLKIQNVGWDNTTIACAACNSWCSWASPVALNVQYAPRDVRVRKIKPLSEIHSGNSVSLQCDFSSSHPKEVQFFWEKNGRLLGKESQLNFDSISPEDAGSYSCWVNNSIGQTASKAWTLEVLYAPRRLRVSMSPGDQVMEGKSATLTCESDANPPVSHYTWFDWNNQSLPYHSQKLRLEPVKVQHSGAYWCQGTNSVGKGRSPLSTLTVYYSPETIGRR

For the test, the target named is human CD22 (human, UniProt P20273 20-687). Description: BLI. The method, boiled down:
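Affinity for human CD22 protein was measured by biolayer interferometry on an Octet QK-384 with anti-human IgG Fc capture biosensors, in 1×PBS, 0.1% BSA, 0.02% Tween-20, pH 7.2. Heavy chain-only antibodies were loaded at 5 μg/mL for 120 seconds, then dipped into a 7-point 1:2 dilution series of CD22 starting at 250 nM, with a buffer-only reference well. Kd was derived as koff/kon from a 1:1 binding model fit in Octet Data Analysis v9.0.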
For orientation: Biolayer interferometry detects binding as a change in optical thickness at a sensor tip.
B1 had a Kd of 2.66 nM. On to B2, for which the Kd was found to be 48.2 nM. In the case of B3, the Kd was 90.6 nM.

In the case of B4, the affinity, expressed as Kd, was 36.9 nM. Molecule B5 displayed a Kd of 17.6 nM. B6 yielded a Kd of 30.5 nM.

For B7, binding was characterised by a dissociation constant (Kd) of 62.5 nM. To B8 belongs 79.7 nM; to B9, 58.4 nM. Take B10: the Kd came to 36 nM.

B11 gave a Kd of 53 nM. To B12 belongs 27.3 nM. Consider B13, for which the Kd stood at 28.8 nM. For B14 the value was 33 nM; for B15, 42.2 nM. As to B16, the Kd is 148 nM. For B17 the value was 38.5 nM; for B18, 75.2 nM; for B19, 23.4 nM. As for B20, binding was put at a Kd of 25.5 nM. To B21 belongs 22.4 nM; to B22, 19 nM; to B23, 150 nM. For B24, the affinity, expressed as Kd, was 31.6 nM.

By Kd is commonly meant the constant that tells how readily two partners part at equilibrium.
